Test results: patent publication US20250059278A1 (SICHUAN HUIYU PHARMACEUTICAL, published 2025)
Residue numbers refer to the chain shown, from its start.

B1: CD3 monoclonal antibody M19 (antibody, human IgG1, lambda, V domains shown)
VH: EVQLVESGGGLVQPGGSLRLSCAASGFTFNTYAMNWVRQAPGKGLEWVARIRSKYNNYATYYADSVKDRFTISRDDSKSILYLQMNSLKTEDTAVYYCVRHGNFGNSAVSWFQYWGQGTLVTVSS
VL: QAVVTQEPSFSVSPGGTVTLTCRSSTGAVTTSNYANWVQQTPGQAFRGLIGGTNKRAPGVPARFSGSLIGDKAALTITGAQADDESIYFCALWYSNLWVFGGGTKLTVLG
notes: IgG: VH19 + IgG1 mutant CH, VL-1 + CL
B2: CD3 monoclonal antibody M26 (antibody, human IgG1, lambda, V domains shown)
VH: B1 VH with S87N, V95M, A108Q
VL: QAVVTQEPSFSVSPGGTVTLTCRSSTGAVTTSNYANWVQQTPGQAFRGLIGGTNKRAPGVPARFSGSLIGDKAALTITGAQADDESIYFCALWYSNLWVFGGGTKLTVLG
notes: IgG: VH26 + IgG1 mutant CH, VL-1 + CL
B3: CD3 monoclonal antibody M39 (antibody, human IgG1, lambda, V domains shown)
VH: B1 VH with I80S, S87N, V95M, G102Q, A108Y
VL: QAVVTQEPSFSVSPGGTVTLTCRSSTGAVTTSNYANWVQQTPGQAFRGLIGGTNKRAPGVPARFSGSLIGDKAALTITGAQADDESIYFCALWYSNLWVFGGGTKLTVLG
notes: IgG: VH39 + IgG1 mutant CH, VL-1 + CL
B4: CD3 monoclonal antibody M25 (antibody, human IgG1, lambda, V domains shown)
VH: B1 VH with V95M, A108R, Q113A
VL: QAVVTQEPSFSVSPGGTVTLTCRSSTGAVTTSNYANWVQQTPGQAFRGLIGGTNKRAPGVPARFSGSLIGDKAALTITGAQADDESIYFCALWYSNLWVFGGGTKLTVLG
notes: IgG: VH25 + IgG1 mutant CH, VL-1 + CL
B5: CD3 monoclonal antibody M33 (antibody, human IgG1, lambda, V domains shown)
VH: B1 VH with D68G, I80S, S107N, A108Y, Q113A, Y114S
VL: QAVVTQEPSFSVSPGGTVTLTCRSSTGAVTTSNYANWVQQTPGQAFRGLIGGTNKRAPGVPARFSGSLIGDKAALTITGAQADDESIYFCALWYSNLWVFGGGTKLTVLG
notes: IgG: VH33 + IgG1 mutant CH, VL-1 + CL
B6: CD3 monoclonal antibody M37 (antibody, human IgG1, lambda, V domains shown)
VH: B1 VH with S87N, V95M, G102A, G105S, A108Y, Q113A
VL: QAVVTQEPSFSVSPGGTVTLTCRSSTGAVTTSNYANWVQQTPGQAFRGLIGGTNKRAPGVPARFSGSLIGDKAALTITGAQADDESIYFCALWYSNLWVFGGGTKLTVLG
notes: IgG: VH37 + IgG1 mutant CH, VL-1 + CL
B7: CD3 monoclonal antibody M43 (antibody, human IgG1, lambda, V domains shown)
VH: B1 VH with V95M, H101P, G105P, A108Y, Q113A, Y114L
VL: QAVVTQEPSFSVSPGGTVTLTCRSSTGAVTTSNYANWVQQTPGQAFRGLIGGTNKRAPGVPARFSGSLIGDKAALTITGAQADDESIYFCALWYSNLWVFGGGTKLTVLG
notes: IgG: VH43 + IgG1 mutant CH, VL-1 + CL
B8: CD3 monoclonal antibody M38 (antibody, human IgG1, lambda, V domains shown)
VH: B1 VH with I80S, S87N, G105L, A108Y
VL: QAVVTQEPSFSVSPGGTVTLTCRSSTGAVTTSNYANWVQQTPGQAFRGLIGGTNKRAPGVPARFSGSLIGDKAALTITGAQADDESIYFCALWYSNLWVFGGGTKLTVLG
notes: IgG: VH38 + IgG1 mutant CH, VL-1 + CL
B9: CD3 monoclonal antibody M45 (antibody, human IgG1, lambda, V domains shown)
VH: B1 VH with I80S, S87N, V95M, G102S, A108Y
VL: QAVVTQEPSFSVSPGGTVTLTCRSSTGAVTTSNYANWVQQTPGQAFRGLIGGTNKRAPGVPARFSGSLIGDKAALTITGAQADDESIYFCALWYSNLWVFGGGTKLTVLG
notes: IgG: VH45 + IgG1 mutant CH, VL-1 + CL
B10: CD3 monoclonal antibody M23 (antibody, human IgG1, lambda, V domains shown)
VH: B1 VH with D68G, V95M, G102S, G105L, A108Y, Q113A
VL: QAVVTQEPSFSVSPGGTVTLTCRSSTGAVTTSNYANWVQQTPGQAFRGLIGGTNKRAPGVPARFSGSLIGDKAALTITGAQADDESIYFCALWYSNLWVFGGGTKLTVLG
notes: IgG: VH23 + IgG1 mutant CH, VL-1 + CL
B11: CD3 monoclonal antibody M40 (antibody, human IgG1, lambda, V domains shown)
VH: B1 VH with I80S, S87N, V95M, H101A, A108Y
VL: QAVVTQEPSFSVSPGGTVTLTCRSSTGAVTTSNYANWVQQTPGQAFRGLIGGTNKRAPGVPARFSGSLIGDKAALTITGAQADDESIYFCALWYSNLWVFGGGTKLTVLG
notes: IgG: VH40 + IgG1 mutant CH, VL-1 + CL
B12: CD3 monoclonal antibody M20 (antibody, human IgG1, lambda, V domains shown)
VH: B1 VH with I80S, A108Y
VL: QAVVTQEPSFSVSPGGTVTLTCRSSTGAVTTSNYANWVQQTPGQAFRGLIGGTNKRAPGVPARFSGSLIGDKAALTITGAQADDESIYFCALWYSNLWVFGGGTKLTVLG
notes: IgG: VH20 + IgG1 mutant CH, VL-1 + CL
B13: CD3 monoclonal antibody M30 (antibody, human IgG1, lambda, V domains shown)
VH: B1 VH with V95M, G102S, S107G, A108Y, Q113A
VL: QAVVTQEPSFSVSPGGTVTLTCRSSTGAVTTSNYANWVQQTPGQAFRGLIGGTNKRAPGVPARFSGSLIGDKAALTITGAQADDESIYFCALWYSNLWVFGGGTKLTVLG
notes: IgG: VH30 + IgG1 mutant CH, VL-1 + CL
B14: CD3 monoclonal antibody M27 (antibody, human IgG1, lambda, V domains shown)
VH: B1 VH with D68G, V95M, G102A, A108Y, Q113A, Y114S
VL: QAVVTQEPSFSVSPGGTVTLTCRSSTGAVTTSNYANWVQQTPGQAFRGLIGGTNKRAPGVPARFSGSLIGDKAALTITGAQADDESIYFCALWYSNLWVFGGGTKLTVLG
notes: IgG: VH27 + IgG1 mutant CH, VL-1 + CL
B15: CD3 monoclonal antibody M21 (antibody, human IgG1, lambda, V domains shown)
VH: B1 VH with D68G, I80S, V95M, G102S, S107T, A108Y, Q113A
VL: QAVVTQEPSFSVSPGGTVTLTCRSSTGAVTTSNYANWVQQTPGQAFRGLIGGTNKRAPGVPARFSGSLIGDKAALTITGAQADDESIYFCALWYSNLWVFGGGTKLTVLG
notes: IgG: VH21 + IgG1 mutant CH, VL-1 + CL
B16: CD3 monoclonal antibody M24 (antibody, human IgG1, lambda, V domains shown)
VH: B1 VH with D68G, G102S, N106R, A108Y, Q113A
VL: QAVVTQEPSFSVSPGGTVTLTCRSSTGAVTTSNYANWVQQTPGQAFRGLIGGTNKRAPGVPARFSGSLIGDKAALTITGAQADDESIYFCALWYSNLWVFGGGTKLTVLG
notes: IgG: VH24 + IgG1 mutant CH, VL-1 + CL
B17: CD3 monoclonal antibody M42 (antibody, human IgG1, lambda, V domains shown)
VH: B1 VH with D68G, I80S, S87N, V95M, G105Q, A108Y
VL: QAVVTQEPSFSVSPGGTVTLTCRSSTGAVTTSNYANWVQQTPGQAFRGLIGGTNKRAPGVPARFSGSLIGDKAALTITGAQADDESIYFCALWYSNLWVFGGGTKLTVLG
notes: IgG: VH42 + IgG1 mutant CH, VL-1 + CL
B18: CD3 monoclonal antibody M46 (antibody, human IgG1, lambda, V domains shown)
VH: B1 VH with V95M, G102A, A108Y, Q113A, Y114S
VL: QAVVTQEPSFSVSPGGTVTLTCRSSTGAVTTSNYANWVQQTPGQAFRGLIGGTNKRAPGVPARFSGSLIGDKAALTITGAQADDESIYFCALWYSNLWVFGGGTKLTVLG
notes: IgG: VH46 + IgG1 mutant CH, VL-1 + CL
B19: CD3 monoclonal antibody M44 (antibody, human IgG1, lambda, V domains shown)
VH: B1 VH with I80S, S87N, V95M, G105Q, A108Y, V109I, Q113A
VL: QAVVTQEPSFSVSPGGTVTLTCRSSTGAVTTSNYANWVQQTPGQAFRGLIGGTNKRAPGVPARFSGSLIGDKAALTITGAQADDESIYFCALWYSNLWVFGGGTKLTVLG
notes: IgG: VH44 + IgG1 mutant CH, VL-1 + CL
B20: CD3 monoclonal antibody M41 (antibody, human IgG1, lambda, V domains shown)
VH: B1 VH with D68G, I80S, S87N, V95M, G102S, G105Q, A108Y, Q113A
VL: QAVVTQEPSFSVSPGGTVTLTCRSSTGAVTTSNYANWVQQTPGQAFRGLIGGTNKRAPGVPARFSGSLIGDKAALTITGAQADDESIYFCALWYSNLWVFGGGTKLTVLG
notes: IgG: VH41 + IgG1 mutant CH, VL-1 + CL
B21: CD3 monoclonal antibody M32 (antibody, human IgG1, lambda, V domains shown)
VH: B1 VH with D68G, I80S, G102S, A108R, Q113A
VL: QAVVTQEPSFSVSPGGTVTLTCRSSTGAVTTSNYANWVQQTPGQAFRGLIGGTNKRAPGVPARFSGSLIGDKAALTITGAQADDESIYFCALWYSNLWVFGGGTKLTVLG
notes: IgG: VH32 + IgG1 mutant CH, VL-1 + CL
B22: CD3 monoclonal antibody M22 (antibody, human IgG1, lambda, V domains shown)
VH: B1 VH with D68G, V95M, G102E, N103R, A108Y, Q113A
VL: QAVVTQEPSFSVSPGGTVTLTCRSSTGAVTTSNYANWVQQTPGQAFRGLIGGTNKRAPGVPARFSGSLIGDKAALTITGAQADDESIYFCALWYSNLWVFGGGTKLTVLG
notes: IgG: VH22 + IgG1 mutant CH, VL-1 + CL
B23: CD3 monoclonal antibody M36 (antibody, human IgG1, lambda, V domains shown)
VH: B1 VH with I80S, V95M, G102S, G105P, A108Y, Q113A
VL: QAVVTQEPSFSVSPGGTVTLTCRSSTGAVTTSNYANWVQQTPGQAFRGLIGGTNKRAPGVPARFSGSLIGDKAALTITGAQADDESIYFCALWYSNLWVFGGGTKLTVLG
notes: IgG: VH36 + IgG1 mutant CH, VL-1 + CL
B24: CD3 monoclonal antibody M34 (antibody, human IgG1, lambda, V domains shown)
VH: B1 VH with D68G, I80S, S87N, G105K, N106Q, A108Y, Q113A
VL: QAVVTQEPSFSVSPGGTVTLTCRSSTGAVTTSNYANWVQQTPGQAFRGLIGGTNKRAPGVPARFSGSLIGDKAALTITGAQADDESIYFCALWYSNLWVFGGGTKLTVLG
notes: IgG: VH34 + IgG1 mutant CH, VL-1 + CL
B25: CD3 monoclonal antibody M31 (antibody, human IgG1, lambda, V domains shown)
VH: B1 VH with D68G, S87N, G102S, A108Y, Q113E
VL: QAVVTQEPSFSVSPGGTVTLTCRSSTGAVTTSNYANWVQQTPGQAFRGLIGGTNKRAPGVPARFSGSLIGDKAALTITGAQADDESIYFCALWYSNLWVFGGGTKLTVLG
notes: IgG: VH31 + IgG1 mutant CH, VL-1 + CL
B26: CD3 monoclonal antibody M35 (antibody, human IgG1, lambda, V domains shown)
VH: B1 VH with I80S, S87N, G102S, A108Y, F112W, Q113A
VL: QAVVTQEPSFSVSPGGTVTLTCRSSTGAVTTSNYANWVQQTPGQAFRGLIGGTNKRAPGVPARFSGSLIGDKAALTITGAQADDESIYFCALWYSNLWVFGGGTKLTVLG
notes: IgG: VH35 + IgG1 mutant CH, VL-1 + CL
B27: CD3 monoclonal antibody M29 (antibody, human IgG1, lambda, V domains shown)
VH: B1 VH with D68G, V95M, G105P, N106M, A108Y, Q113A
VL: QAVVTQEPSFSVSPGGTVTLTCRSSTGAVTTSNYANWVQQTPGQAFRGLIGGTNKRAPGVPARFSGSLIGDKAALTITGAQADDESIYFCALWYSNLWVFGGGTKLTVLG
notes: IgG: VH29 + IgG1 mutant CH, VL-1 + CL
B28: Positive control bispecific antibody OKT3-3C6 (bispecific antibody, human IgG1, lambda)
heavy: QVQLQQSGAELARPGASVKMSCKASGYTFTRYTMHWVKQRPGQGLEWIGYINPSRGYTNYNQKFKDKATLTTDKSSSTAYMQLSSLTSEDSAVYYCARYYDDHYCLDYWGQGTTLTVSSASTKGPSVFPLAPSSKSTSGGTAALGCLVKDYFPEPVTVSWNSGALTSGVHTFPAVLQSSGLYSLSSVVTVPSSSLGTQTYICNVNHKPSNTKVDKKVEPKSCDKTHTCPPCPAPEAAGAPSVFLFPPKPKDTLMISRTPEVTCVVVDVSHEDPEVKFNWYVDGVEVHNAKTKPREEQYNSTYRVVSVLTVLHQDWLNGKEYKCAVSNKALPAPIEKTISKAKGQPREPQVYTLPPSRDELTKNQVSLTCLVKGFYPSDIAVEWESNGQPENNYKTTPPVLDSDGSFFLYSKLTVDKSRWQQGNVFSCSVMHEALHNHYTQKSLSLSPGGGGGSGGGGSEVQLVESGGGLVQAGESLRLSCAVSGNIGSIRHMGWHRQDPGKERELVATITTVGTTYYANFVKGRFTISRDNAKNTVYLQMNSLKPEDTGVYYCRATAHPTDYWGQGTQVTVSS
light: QIVLTQSPAIMSASPGEKVTMTCSASSSVSYMNWYQQKSGTSPKRWIYDTSKLASGVPAHFRGSGSGTSYSLTISGMEAEDAATYYCQQWSSNPFTFGSGTKLEIGQPKAAPSVTLFPPSSEELQANKATLVCLISDFYPGAVTVAWKADSSPVKAGVETTTPSKQSNNKYAASSYLSLTPEQWKSHRSYSCQVTHEGSTVEKTVAPTECS

Target: T1, Monkey CD3 on cynomolgus HSC-F cells (cynomolgus monkey, UniProt Q95LI5 22-198; Q95LI7 23-181; Q95LI8 22-171)
T1 construct: whole, on cells; also called Monkey CD3-expressing cynomolgus HSC-F cells; cynomolgus monkey CD3-expressing HSC-F cells
Test: flow cytometry on HSC-F cells

| Binder | EC50 [pM] |
| --- | --- |
| B1 | 238 |
| B2 | 223 |
| B3 | 498 |
| B4 | 111 |
| B5 | 1550 |
| B6 | 398 |
| B7 | 8240 |
| B8 | 161 |
| B9 | 156 |
| B10 | 164 |
| B11 | 407 |
| B12 | 6580 |
| B13 | 348 |
| B14 | 165 |
| B15 | 1230 |
| B16 | 120 |
| B17 | 143 |
| B18 | 148 |
| B19 | 141 |
| B20 | 130 |
| B21 | 66.7 |
| B22 | 2310 |
| B23 | 109 |
| B24 | 266 |
| B25 | 154 |
| B26 | 207 |
| B27 | 272 |

Target: T1, Monkey CD3 on cynomolgus HSC-F cells
Test: flow cytometry on HSC-F cells
Remark: another data set of the same source

| Binder | binding result |
| --- | --- |
| B28 | no binding (tested: 2 µg/ml starting concentration) |

Target: T2, Human CD3 on Jurkat cells (human, UniProt P07766 23-207; P09693 23-182; P04234 22-171)
T2 construct: whole, on cells; also called Human CD3-expressing Jurkat cells; Jurkat (naturally expressing human CD3)
Test: flow cytometry on Jurkat cells

| Binder | EC50 [pM] |
| --- | --- |
| B1 | 190 |
| B2 | 235 |
| B3 | 760 |
| B4 | 95.4 |
| B5 | 4920 |
| B6 | 211 |
| B7 | 10200 |
| B8 | 176 |
| B9 | 415 |
| B10 | 186 |
| B11 | 3410 |
| B12 | 61700 |
| B13 | 302 |
| B14 | 402 |
| B15 | 41600 |
| B16 | 1320 |
| B17 | 431 |
| B18 | 338 |
| B19 | 1610 |
| B20 | 752 |
| B21 | 188 |
| B22 | 2550 |
| B23 | 198 |
| B24 | 2580 |
| B25 | 1560 |
| B26 | 792 |
| B27 | 412 |

Target: T2, Human CD3 on Jurkat cells
Test: flow cytometry on Jurkat cells
Remark: another data set of the same source

| Binder | EC50 [pM] |
| --- | --- |
| B28 | 73.6 |

Target: T3, Human CD3εγ recombinant antigen (acrobiosystems, Cat. No. CDG-H52W5) (human, UniProt P07766 23-126; P09693 23-116)
T3 construct: Bought recombinant protein
Test: SPR chip (Carterra), antibody captured, antigen in flow;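 further: antibodies captured through anti-human IgG Fc at roughly 1000 RU, kinetic constants fitted with a 1:1 binding model in Carterra analysis software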
Procedure: Antibodies at three concentrations of 4, 2, and 1 μg/mL were immobilized on the HC200M chip containing anti-human IgG Fc secondary antibody (Xantec, Cat. No.: HC200M), and the antibody binding amount was controlled to approximately 1000RU. […] The kinetic constants were obtained by fitting using the 1:1 binding model of Kinetics software from Carterra.

| Binder | Kd [pM] | koff [s⁻¹] | kon [M⁻¹ s⁻¹] |
| --- | --- | --- | --- |
| B1 | 1570 | 0.00256 | 1.63e+06 |
| B2 | 3510 | 0.00543 | 1.55e+06 |
| B3 | 29700 | 0.0305 | 1.02e+06 |
| B4 | 5270 | 0.0048 | 910000 |
| B5 | 19300 | 0.0054 | 280000 |
| B6 | 5310 | 0.0043 | 810000 |
| B7 | 13300 | 0.0016 | 120000 |
| B8 | 2330 | 0.00268 | 1.15e+06 |
| B9 | 1870 | 0.00344 | 1.85e+06 |
| B10 | 1570 | 0.00549 | 3.5e+06 |
| B11 | 1280 | 0.00055 | 431000 |
| B12 | 2560 | 0.00232 | 908000 |
| B13 | 2930 | 0.00234 | 798000 |
| B14 | 2440 | 0.0028 | 1.15e+06 |
| B15 | 3710 | 0.00649 | 1.75e+06 |
| B16 | 1060 | 0.00358 | 3.38e+06 |
| B17 | 1150 | 0.00137 | 1.19e+06 |
| B18 | 2050 | 0.00205 | 999000 |
| B19 | 3330 | 0.00334 | 1e+06 |
| B20 | 1520 | 0.00513 | 3.38e+06 |
| B21 | 4370 | 0.0133 | 3.05e+06 |
| B22 | 3330 | 0.00222 | 666000 |
| B23 | 1690 | 0.0109 | 6.46e+06 |
| B24 | 7220 | 0.0034 | 471000 |
| B25 | 430 | 0.00126 | 2.92e+06 |
| B26 | 842 | 0.00283 | 3.36e+06 |
| B27 | 5880 | 0.00776 | 1.32e+06 |
